Assay results published in US20240124565A1 (DIADEM S R L, published 2024).
Where no end group is shown, it is not given here.

Biological target: T1, peptide CRTEEENLRKKGEPHH (SEQ ID NO: 2) conjugated with BSA (human, also: conjugated with BSA by the glutaraldehyde method)
T1 construct: 16-residue immunogen derived from human p53 282-297, with Cys in place of the first Arg; ELISA plates were coated with 'the antigen'; also called the antigen; peptide used as antigen
T1 peptide: CRTEEENLRKKGEPHH
Assay: ELISA, plate coated with the antigen, hybridoma supernatant dilutions
Protocol: The animals' splenocytes were fused with mouse myeloma cells (SP2/O cell line). The fusion products were subjected to screening against the antigen to select the antibody-producing clones. The growth of these clones was continued. This first screening was performed by ELISA methodology. The positive clones were labeled as “parental clones” and frozen after 3 passages. An antigen coating was created onto ELISA plates, and successively the fusion product supernatant was added. The serum of the immunized animals was used as a positive control in ELISA (Example 2).
After the fusion between the splenocytes of the mouse with the best antibody titer and mouse myeloma cells, an ELISA assay was performed to evaluate the fusion products. A coating with the antigen was created in a 96-well ELISA plate and serial dilutions of the supernatant from various clones were added to each well to evaluate their antibody production by spectrophotometric reading. The clones with the highest optical density at 450 nm (OD₄₅₀ₙₘ) were transferred to 24-well plates and after their growth the ELISA assay was repeated, the clones with the highest antibody production were transferred to 6-well plates, grown and tested again by ELISA. The procedure was repeated also for the clones transferred to culture flasks.

B1: 2D3A8 antibody (antibody)
heavy: EVQLQQSGPELVKPGASVKMSCKASGYTFTSYVMHWVKQKPGQGLEWIGYINPYNDGTKYNEKFKGKATLTSDKSSSTAYMELSSLTSEDSAVYYCARGGYYAMDYWGQGTSVTVSSESQSFPNVFPLVSCESPLSDKNLVAMGCLARDFLPSTISFTWNYQNNTEVIQGIRTFPTLRTGGKYLATSQVLLSPKSILEGSDEYLVCKIHYGGKNRDLHVPIPAVAEMNPNVNVFVPPRDGFSGPAPRKSKLICEATNFTPKPITVSWLKDGKLVESGFTTDPVTIENKGSTPQTYKVISTLTISEIDWLNLNVYTCRVDHRGLTFLKNVSSTCAASPSTDILTFTIPPSFADIFLSKSANLTCLVSNLATYETLNISWASQSGEPLETKIKIMESHPNGTFSAKGVASVCVEDWNNRKEFVCTVTHRDLPSPQKKFISKPNEVHKHPPAVYLLPPAREQLNLRESATVTCLVKGFSPADISVQWLQRGQLLPQEKYVTSAPMPEPGAPGFYFTHSILTVTEEEWNSGETYTCVVGHEALPHLVTERTVDKSTGKPTLYNVSLIMSDTGGTCY
light: DIQMTQTTSSLSASLGDRVTISCRASQDISNYLNWYQQKPDGTVKLLIYYTSRLHSGVPSRFSGSGSGTDYSLTISNLEQEDIATYFCQQGNTLPYTFGGGTKLEIKRADAAPTVSIFPPSSEQLTSGGASVVCFLNNFYPKDINVKWKIDGSERQNGVLNSWTDQDSKDSTYSMSSTLTLTKDEYERHNSYTCEATHKTSTSPIVKSFNRNEC
notes: Mouse monoclonal from a hybridoma, purified from the clone's supernatant; also called clone 2D3A8
- binding result: binds
